# From US20240101677A1
# Tests used:
# [1] = target: human CD16A (type 158V) on GS-CHO cells (human) (UniProt P08637); assay: flow cytometry (MFI, PE-anti-human Fc) on GS-CHO cells expressing human CD16A (type 158V)
# [2] = target: human CD16A-158F protein (human) (UniProt P08637); assay: BLI (ForteBio), antibody on Protein A sensor, antigen 100 nM, 1:1 model
# [3] = target: human CD16A-158V protein (human) (UniProt P08637); assay: as above
# [4] = target: cynomolgus monkey CD16A protein (cynomolgus monkey) (UniProt Q8SPW2); assay: as above
# cynomolgus monkey CD16A protein (cynomolgus monkey), sequence (Q8SPW2 17-208 limits assumed): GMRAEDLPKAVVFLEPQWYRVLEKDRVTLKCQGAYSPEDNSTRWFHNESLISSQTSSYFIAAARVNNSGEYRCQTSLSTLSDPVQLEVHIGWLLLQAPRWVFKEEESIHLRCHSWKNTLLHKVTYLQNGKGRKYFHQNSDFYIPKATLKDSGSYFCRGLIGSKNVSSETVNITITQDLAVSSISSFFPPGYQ
# [5] = target: CD16A on human primary NK cells (human) (UniProt P08637); assay: flow cytometry (MFI, PE-anti-human Fc) on human primary NK cells, donor SLB190071
# CD16A on human primary NK cells (human), sequence (P08637 17-254): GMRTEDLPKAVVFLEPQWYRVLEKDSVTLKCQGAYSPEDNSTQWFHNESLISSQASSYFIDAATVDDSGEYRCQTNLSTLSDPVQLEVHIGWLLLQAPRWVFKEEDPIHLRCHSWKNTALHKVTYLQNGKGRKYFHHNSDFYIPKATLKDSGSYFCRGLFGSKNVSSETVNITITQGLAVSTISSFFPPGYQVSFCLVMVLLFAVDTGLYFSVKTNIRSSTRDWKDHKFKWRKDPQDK
# CD16A-158V-G129D (human) = assay: BLI (ForteBio), method of Example 3, mutant antigen
# CD16A-158V-G129D (human), sequence (chain, as listed by the source G129D G129D limits assumed): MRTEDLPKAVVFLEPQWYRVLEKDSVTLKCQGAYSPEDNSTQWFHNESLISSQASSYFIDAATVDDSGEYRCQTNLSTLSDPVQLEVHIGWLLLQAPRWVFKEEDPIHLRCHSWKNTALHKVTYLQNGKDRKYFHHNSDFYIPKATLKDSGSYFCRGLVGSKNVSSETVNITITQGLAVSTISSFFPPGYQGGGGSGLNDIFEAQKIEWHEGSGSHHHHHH
# [6] = target: CD16A on human primary NK cells (human) (UniProt P08637); assay: flow cytometry (MFI, PE-anti-human Fc) on human primary NK cells, donor SLB190084
# human CD16A (type 158V) on GS-CHO cells (human), sequence (P08637 17-254 F176V): as the sequence (P08637 17-254) above, with F160V counted along it
# human CD16A-158V protein (human), sequence (P08637 17-208 F176V limits assumed): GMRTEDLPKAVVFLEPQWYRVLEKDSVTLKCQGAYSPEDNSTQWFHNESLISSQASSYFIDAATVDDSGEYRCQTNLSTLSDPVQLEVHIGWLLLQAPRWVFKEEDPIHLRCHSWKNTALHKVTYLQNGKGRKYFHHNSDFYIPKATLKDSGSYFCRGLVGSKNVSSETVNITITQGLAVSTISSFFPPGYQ
# human CD16A-158F protein (human), sequence (P08637 17-208 limits assumed): as the sequence (P08637 17-208 F176V limits assumed) above, with V160F counted along it
binder,measurement,setting,value
"4LS21 antibody (CD16A humanized antibody 4LS21 from Affimed Therapeutics AG, in the form of ScFv-Fc) (Fc fusion, not shown: a dimerising Fc or GST; small tags and cut ends) VH: QVQLVQSGAEVKKPGESLKVSCKASGYTFTSYYMHWVRQAPGQGLEWMGAIEPMYGSTSYAQKFQGRVTMTRDTSTSTVYMELSSLRSEDTAVYYCARGSAYYYDFADYWGQGTLVTVSS VL: SYVLTQPSSVSVAPGQTATISCGGHNIGSKNVHWYQQRPGQSPVLVIYQDNKRPSGIPERFSGSNSGNTATLTISGTQAMDEADYYCQVWDNYSVLFGGGTKLTVL",EC50,[1],11.8 nM
same,Kd,[2],4.75 nM
same,Kd,[3],7.75 nM
same,Kd,[4],7.94 nM
same,EC50,[5],2.64 nM
same,Kd,CD16A-158V-G129D (human),4.63 nM
same,EC50,[6],15.6 nM
